Experimental data reported in patent publication US20100015126A1, “Methods of Binding of Cross-Beta Structures By Chaperones” (priority 2006, published 2010).

How the values were obtained:
human BiP [1] = molecular target: T1, human BiP (Homo sapiens, UniProt P11021); experiment: ELISA: binding of BiP-FLAG-His to immobilized (misfolded) protein ligands; conditions: ligands coated at 5 μg/ml; 6BB peptides and oxLDL 50 μg/ml
T1 construct: The human BiP gene except the signal peptide encoding region was obtained from Geneart (Germany); linker […]; made in house; host or cells: HEK 293E cells, transient transfection, PABC674 vector; secreted into the medium
Procedure, shortened: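 Ligands were coated at 5 μg/ml (50 μg/ml for 6BB# peptides and oxLDL) in 50 mM NaHCO3 pH 9.6, blocked, then incubated in triplicate with BiP-FLAG-His dilution series for 1 h at room temperature. Bound BiP was detected with peroxidase anti-FLAG M2 and TMB, stopped after 5 min and read at 450 nm. Buffer-only and chaperone-omitted background signals were subtracted.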

human BiP [2] = molecular target: T1, human BiP; experiment: ELISA: inhibition of BiP binding to crossbeta structure with tPA; conditions: threefold diluted supernatant; 10 mM ε-amino caproic acid; no competitor
From the text: The threefold diluted cell supernatants were applied to the ELISA plate in duplicates and BiP binding was subsequently measured as described above. Coat efficiency was checked with specific anti-AGE antibody, anti-albumin antibody and anti-Hb antibody.

T1 sequence (P11021 19-654): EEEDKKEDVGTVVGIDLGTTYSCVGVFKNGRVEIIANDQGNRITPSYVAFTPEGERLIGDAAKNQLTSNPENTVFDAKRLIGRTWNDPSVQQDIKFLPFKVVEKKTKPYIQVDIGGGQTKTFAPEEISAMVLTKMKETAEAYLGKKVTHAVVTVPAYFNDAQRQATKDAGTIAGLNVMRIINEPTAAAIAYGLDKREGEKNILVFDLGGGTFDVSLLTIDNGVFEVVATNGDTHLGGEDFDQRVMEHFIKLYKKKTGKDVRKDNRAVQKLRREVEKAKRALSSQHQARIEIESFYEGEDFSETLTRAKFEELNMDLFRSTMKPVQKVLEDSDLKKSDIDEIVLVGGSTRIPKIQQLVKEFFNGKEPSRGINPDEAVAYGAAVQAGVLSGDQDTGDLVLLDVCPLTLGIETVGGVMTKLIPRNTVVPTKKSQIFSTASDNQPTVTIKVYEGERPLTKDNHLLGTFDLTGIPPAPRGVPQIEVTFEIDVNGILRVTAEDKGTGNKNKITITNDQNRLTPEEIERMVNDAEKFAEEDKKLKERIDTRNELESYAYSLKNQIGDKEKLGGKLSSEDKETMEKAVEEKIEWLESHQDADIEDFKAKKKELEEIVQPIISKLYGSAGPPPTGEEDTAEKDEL

| Substance | Binding of concentration series of BiP to coated ligand (human BiP [1]) | Binding of BiP to coated ligand (human BiP [2]) |
| --- | --- | --- |
| AGEYYAAL [6BB7] | did not bind | – |
| BSA-AGE | has been established | binds |
| GSNKGAIIGLM [6BB6, Human Aβ (25-35)] | has been established | – |
| Hb: non-modified human haemoglobin control | did not bind | some binding |
| HbAGE: human haemoglobin glycated with glucose-6-phosphate for 75 weeks | has been established | – |
| KLVFFAE [6BB12, Human Aβ16-22] | no BiP binding was observed | – |
| native BSA: non-modified bovine serum albumin control | did not bind | hardly |
